{"source": "patent US20220332804A1", "about": "(CSL INNOVATION, published 2022)", "binders": {"B1": {"name": "RF16-226 (antibody, human IgG4 S228P, lambda)", "heavy": "not shown", "light": "SYELTQPPSVSVSPGQTARITCSGDALTSKYVAWYQQKSGLAPLLVIYEDTRRPSGIPAKFSGSSSGSVATLTISGAHGDDEADYYCYSTDASGHQRVFGGGTKLTVLSQPKAAPSVTLFPPSSEELQANKATLVCLISDFYPGAVTVAWKADGSPVKAGVETTKPSKQSNNKYAASSYLSLTPEQWKSHRSYSCQVTHEGSTVEKTVAPTECS", "notes": "pH-dependent anti-C2 antibody from a phage display library; also called WT"}}, "assay_in_all_cases": "SPR, KD relative to WT C2;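 note: biacore SPR at 37 °C, anti-C2 mAbs captured via immobilised goat anti-human IgG, C2 alanine or serine surface mutants as analytes, 1:1 model fitted, double-referenced sensograms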", "key": {"human C2 V722A": {"molecular_target": "T1, human C2 V722A (human, UniProt P06681 21-752)", "T1 sequence": "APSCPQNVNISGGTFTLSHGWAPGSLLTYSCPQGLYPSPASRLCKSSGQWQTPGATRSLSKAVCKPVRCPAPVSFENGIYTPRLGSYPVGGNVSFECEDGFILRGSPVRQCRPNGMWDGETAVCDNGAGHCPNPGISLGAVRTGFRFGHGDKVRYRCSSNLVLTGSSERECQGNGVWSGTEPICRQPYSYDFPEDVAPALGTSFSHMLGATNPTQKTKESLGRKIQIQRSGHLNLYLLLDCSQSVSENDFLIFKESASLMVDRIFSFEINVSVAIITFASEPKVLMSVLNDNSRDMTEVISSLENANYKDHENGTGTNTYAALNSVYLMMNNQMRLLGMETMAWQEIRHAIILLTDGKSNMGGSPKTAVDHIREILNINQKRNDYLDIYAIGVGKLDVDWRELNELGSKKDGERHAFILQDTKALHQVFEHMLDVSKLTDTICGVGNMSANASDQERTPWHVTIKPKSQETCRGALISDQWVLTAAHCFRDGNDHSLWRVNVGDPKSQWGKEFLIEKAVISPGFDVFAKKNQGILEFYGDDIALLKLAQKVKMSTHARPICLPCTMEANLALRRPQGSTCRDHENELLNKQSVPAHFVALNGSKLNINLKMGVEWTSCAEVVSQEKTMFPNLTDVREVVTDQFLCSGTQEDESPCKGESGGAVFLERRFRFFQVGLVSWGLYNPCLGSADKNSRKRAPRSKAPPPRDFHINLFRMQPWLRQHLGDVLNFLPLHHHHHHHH"}, "human C2 A436S": {"molecular_target": "T2, human C2 A436S (human, UniProt P06681 21-752)", "T2 sequence": "T1 sequence with A416S, A702V"}, "human C2 L271A": {"molecular_target": "T3, human C2 L271A (human, UniProt P06681 21-752)", "T3 sequence": "T1 sequence with L251A, A702V"}, "human C2 N621A": {"molecular_target": "T4, human C2 N621A (human, UniProt P06681 21-752)", "T4 sequence": "T1 sequence with N601A, A702V"}}, "note": "Positions count from the first letter of the chain named."}
{"binder": "B1", "values": [{"measurement": "Fold diff", "setting": "human C2 V722A", "result": 10, "unit": "fold"}, {"measurement": "Fold diff", "setting": "human C2 A436S", "result": 1, "unit": "fold"}, {"measurement": "Fold diff", "setting": "human C2 L271A", "result": 1, "unit": "fold"}, {"measurement": "Fold diff", "setting": "human C2 N621A", "result": 5, "unit": "fold"}]}
